Experimental data as given in patent publication US20250026827A1 (Alector, published 2025).
Changes are numbered by the printed parent chain. Read-outs that look alike come from different tables or passages of the source.

T1: mouse SIRPβ1 on CHO cells (mouse)
T1 construct: Whole entry
T1 chain: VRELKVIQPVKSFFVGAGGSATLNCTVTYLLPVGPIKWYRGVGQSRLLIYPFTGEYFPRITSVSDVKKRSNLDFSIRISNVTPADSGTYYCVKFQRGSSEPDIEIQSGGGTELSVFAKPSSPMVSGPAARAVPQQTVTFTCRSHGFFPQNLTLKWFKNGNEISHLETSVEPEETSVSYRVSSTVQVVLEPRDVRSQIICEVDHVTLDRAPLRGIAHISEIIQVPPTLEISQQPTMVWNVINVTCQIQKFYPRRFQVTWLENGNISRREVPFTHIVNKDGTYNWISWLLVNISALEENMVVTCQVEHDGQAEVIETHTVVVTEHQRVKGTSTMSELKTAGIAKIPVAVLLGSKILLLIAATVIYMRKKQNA

B1: SB-40-21 (antibody, V domains shown)
VH: QVQLVQSGAEVKKPGASVKVSCKASGYTFTSYYMVWVRQAPGQGLEWMGIINPSSGDTNYAQKFQGRVTMTRDTSISTAYMELSRLRSDDTAVYYCARDTGEYSYSPHGMDVWGQGTTVTVSS
VL: EIVLTQSPATLSLSPGERATLSCRASQSVSSYLAWYQQKPGQAPRLLIYDSSNRATGIPARFSGSGSGTDFTLTISSLEPEDFAVYYCQQRDEHPPWTFGGGTKVEIK
notes: IgG
B2: SB-40 Fab (Fab, V domains shown)
VH: B1 VH with V35S, S55G, D57S, N59S, I76T, A79V, R85S, D89E
VL: B1 VL
notes: Fab by papain digestion
B3: SB-1 Fab (Fab, V domains shown)
VH: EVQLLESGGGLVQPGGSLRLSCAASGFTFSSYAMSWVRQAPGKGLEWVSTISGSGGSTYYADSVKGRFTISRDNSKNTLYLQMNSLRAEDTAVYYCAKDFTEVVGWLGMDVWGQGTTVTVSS
VL: EIVMTQSPGTLSLSPGERATLSCRASQSVSSSYLAWYQQKPGQAPRLLIYGASSRATGIPDRFSGSGSGTDFTLTISRLEPEDFAVYYCQLLGSSPRTFGGGTKVEIK
notes: Fab by papain digestion
B4: SB-2 Fab (Fab, V domains shown)
VH: QVQLVESGGGVVQPGRSLRLSCAASGFTFSSYGMNWVRQAPGKGLEWVAVIWYDGSNKYYADSVKGRFTISRDNSKNTLYLQMNSLRAEDTAVYYCARDQTAAAAIWGMDVWGQGTTVTVSS
VL: B3 VL with M4L, L91Q, L92S, G93S, S95H, R97F
notes: Fab by papain digestion
B5: SB-8 Fab (Fab, V domains shown)
VH: QVQLQESGPGLVKPSETLSLTCAVSGYSISSGYYWGWIRQPPGKGLEWIGSIYHSGSTYYNPSLKSRVTISVDTSKNQFSLKLSSVTAADTAVYYCARGGAMTPAGMDVWGQGTTVTVSS
VL: B3 VL with S54N, L91Q, L92V, G93Y, R97Y
notes: Fab by papain digestion

What was measured:
[1] = biological target: T2, Soluble, human SIRPβ1-Fc isoform 1 (O00241) (human, UniProt O00241 30-371, limits assumed); assay: ELISA, antigen coated
T2 construct: Whole entry named; also called human SIRPβ1 isoform 1
T2 sequence (O00241 30-371 limits assumed, one chain of several): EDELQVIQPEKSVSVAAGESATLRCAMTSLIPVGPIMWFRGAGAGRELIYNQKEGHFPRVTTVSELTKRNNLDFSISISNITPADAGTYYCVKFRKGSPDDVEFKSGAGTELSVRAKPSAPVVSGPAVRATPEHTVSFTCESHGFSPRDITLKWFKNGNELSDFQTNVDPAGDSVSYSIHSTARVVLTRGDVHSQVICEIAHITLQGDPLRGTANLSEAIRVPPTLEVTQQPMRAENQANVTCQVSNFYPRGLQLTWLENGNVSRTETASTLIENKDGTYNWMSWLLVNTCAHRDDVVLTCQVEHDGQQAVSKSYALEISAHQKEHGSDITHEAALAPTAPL

[2] = biological target: T3, human SIRPβ1 isoform 1 on cells (human, UniProt O00241 30-398); assay: cell binding titration; target not given
T3 construct: On CHO cells (low level), on BWZ/BW5147.G.1.4 cells (reporter cells co-express human DAP12) or on primary human myeloid cells; also called huSIRPβ1; BWZ-huSIRPβ1
T3 sequence (O00241 30-398): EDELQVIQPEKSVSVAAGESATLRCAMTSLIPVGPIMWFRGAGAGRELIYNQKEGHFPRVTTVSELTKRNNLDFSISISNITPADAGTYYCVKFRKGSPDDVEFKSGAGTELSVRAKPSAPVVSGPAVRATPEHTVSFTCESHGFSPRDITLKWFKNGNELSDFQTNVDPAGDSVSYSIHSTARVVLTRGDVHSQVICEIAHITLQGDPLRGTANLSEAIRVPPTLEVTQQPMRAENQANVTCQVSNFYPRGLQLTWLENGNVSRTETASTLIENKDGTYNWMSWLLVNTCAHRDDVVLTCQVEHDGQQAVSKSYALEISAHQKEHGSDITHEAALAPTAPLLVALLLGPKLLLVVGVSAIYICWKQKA

[3] = biological target: T4, human SIRPα domain 1 (D1) Fc fusion (human, UniProt P78324 32-149); assay: Octet, IgG avid
T4 construct: also called human SIRPα D1-Fc; Human SIRPα Fc; not shown: C-terminal human IgG1 Fc

[4] = biological target: T1, mouse SIRPβ1 on CHO cells; assay: flow cytometry;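 for FOB: antibody binding to cells detected with a PE-labelled secondary antibody, given as mean fluorescence intensity relative to background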
human SIRPα on cells [5] = biological target: T5, human SIRPα on cells (human, UniProt P78324 31-504); assay: flow cytometry;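 for FOB: antibody binding to cells detected with a PE-labelled secondary antibody, given as mean fluorescence intensity relative to background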
T5 construct: Whole entry

[6] = biological target: T3, human SIRPβ1 isoform 1 on cells; assay: flow cytometry;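 note: antibody binding to cells detected with a PE-labelled secondary antibody, given as mean fluorescence intensity relative to background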
Experimental: (§1) Cells were then washed twice and incubated in 100 ul FACS buffer containing 0.5 μg/ml PE-conjugated secondary antibody for 30 minutes on ice. Cells were washed twice in cold FACS buffer and acquired on a BD FACS Canto. Data analysis and calculation of mean fluorescence intensity (MFI) values or 00 positive cells was performed with FlowJo (TreeStar) software version 10.0.7.
(§2) Given the high sequence similarity between receptors of the SIRPβ family, anti-SIRPβ1 antibodies were also screened for cross-reactivity to human SIRPα.

[7] = biological target: T1, mouse SIRPβ1 on CHO cells; assay: flow cytometry;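 for FOB: antibody binding to cells detected with a PE-labelled secondary antibody, given as mean fluorescence intensity relative to background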
Experimental: as §1, §2

human SIRPα on cells [8] = biological target: T5, human SIRPα on cells; assay: flow cytometry; remark: listed apart in the source
Experimental: as §1, §2

[9] = biological target: T6, human SIRPβ1 domain 1 (D1) Fc fusion (human, UniProt O00241 30-148); assay: Octet, Fab monovalent
T6 construct: Made in HEK293/T cells with a heterologous signal peptide; also called Human SIRPβ1 D1-Fc; Human SIRPβ1-Fc; not shown: C-terminal human IgG1 Fc
T6 sequence (O00241 30-148 limits assumed): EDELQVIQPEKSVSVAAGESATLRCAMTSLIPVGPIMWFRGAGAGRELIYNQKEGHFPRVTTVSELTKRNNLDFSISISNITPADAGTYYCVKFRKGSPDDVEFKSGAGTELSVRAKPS

[10] = biological target: T6, human SIRPβ1 domain 1 (D1) Fc fusion; assay: Octet, Fab monovalent; remark: listed apart in the source

| Binder | Kd [9] [nM] | Kd [10] [nM] | further results |
| --- | --- | --- | --- |
| B1 | – | – | EC50 [1]: 0.025 nM; EC50 [2]: 0.715 nM; binding result [3]: no binding (tested: 100 nM); binding result [4]: no binding (tested: 1 ug/ml); binding result (human SIRPα on cells [5]): no binding (tested: 1 ug/ml); FOB [6]: 5 fold over background; FOB [7]: 2 fold over background; FOB (human SIRPα on cells [8]): 1 fold over background |
| B2 | 427 | 918 | – |
| B3 | 97.9 | 172 | – |
| B4 | 266 | 977 | – |
| B5 | 126 | 151 | – |
